Changes are numbered by the printed parent chain. Names may count otherwise. Each block holds one binder with its values, some of them ahead of it.
Tests used:
[1] = molecular target: T1, rhCD73 bound to his-tag magnet beads (human, UniProt P21589 27-547, limits assumed); experiment: cell-based or functional assay
T1 sequence: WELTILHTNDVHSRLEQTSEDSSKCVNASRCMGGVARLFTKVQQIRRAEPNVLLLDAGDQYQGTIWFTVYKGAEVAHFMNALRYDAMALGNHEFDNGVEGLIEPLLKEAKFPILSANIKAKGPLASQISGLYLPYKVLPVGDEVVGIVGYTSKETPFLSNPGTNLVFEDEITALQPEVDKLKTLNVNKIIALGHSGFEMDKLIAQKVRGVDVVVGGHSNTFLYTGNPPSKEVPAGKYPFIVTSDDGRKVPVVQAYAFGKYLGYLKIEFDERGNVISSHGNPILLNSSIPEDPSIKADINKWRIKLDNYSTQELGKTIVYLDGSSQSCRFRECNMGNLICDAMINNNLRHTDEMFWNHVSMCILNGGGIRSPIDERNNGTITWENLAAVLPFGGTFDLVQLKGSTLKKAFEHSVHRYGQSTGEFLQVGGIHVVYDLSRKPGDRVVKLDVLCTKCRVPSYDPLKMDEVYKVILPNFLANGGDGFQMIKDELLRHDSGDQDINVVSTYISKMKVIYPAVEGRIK

human CD73 on cells [2] = molecular target: T2, human CD73 on cells (human, UniProt P21589 27-549); experiment: cell-based or functional assay
T2 sequence: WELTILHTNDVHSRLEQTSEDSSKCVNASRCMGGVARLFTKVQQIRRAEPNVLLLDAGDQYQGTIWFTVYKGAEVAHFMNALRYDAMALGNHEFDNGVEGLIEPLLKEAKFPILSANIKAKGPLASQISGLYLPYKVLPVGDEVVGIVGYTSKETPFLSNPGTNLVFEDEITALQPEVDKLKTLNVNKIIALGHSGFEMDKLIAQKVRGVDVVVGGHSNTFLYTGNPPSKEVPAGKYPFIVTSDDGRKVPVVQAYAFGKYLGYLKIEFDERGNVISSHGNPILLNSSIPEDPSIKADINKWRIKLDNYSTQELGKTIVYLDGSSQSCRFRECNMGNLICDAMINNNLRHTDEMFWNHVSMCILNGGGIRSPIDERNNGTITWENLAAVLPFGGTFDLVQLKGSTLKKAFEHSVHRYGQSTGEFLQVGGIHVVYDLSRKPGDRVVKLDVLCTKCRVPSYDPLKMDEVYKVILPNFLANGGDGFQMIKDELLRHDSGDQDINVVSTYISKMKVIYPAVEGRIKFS

human CD73 on cells [3] = molecular target: T2, human CD73 on cells; experiment: cell-based or functional assay; remark: listed apart in the source
[4] = molecular target: T3, N-hCD73-his (N-terminal domain of human CD73, residues 26-336, His tag) (human, UniProt P21589 26-336); experiment: SPR, mAb captured on protein A
T3 sequence: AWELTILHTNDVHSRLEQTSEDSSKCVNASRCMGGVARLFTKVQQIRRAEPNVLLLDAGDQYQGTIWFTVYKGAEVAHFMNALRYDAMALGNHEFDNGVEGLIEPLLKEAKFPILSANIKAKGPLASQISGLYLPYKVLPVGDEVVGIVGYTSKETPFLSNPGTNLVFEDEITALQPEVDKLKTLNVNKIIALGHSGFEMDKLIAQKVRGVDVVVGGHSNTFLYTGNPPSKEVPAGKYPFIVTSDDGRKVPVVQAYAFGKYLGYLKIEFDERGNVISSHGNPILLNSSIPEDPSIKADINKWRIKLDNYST
Experimental: For these experiments, protein A (Pierce) was immobilized to a density of 3000-4000 RU on flow cells 1-4 of a CM5 sensor chip (GE Healthcare) using standard ethyl(dimethylaminopropyl) carbodiimide (EDC)/N-hydroxysuccinimide […] chemistry, with ethanolamine blocking, in a running buffer of 0.01 M HEPES pH 7.4, 0.15 M NaCl, 3 mM EDTA, 0.005% v/v tween 20. […] The running buffer for the kinetic experiments was 10 mM sodium phosphate, 130 mM sodium chloride, 0.05% tween 20, pH 7.1. The surfaces were regenerated after each cycle using two 30 s pulses of 10 mM glycine pH 1.5 at a flow rate of 30 μl/min. Sensogram data was double-referenced and then fitted to a 1:1 Langmuir model using Biacore T100 evaluation software v2.0.4, to determine the association rate constant (ka), the dissociation rate constant (kd), and the equilibrium dissociation constant (KD).

human CD73 on cells [5] = molecular target: T2, human CD73 on cells; experiment: binding titration on Calu6 cells, average of 2-6 experiments
human CD73 on cells [6] = molecular target: T2, human CD73 on cells; experiment: cell-based or functional assay; remark: listed apart in the source

B1: 5F8 (antibody, human IgG1, kappa, V domains shown)
VH: EVQLVESGGGLVQPGGSLRLSCAASGFTFSSYWMHWVRQAPGKGLVWVSRIISDGSSTGYADSVKGRFTISRDNAKNTLYLQMNSLRAEDTAVYYCAREFSSGWYFDYWGQGTLVTVSS
VL: AIQLTQSPSSLSASVGDRVTITCRASQGISSALAWYQQKPGKAPKLLIYDASSLESGVPSRFSGSGSGTDFTLTISSLQPEDFATYYCQQFSSYPRTFGQGTKVEIKR
notes: IgG1za; VK2 also expressed; also called 5F8-1
EC50 (nM), inhibition of bead-bound human CD73 enzymatic activity [1]: 5.76 nM
EC50 Calu6 inhibition (human CD73 on cells [2]): 8.1 nM
EC50 H292 inhibition (human CD73 on cells [2]): 13.5 nM
EC50 SKMEL24 inhibition (human CD73 on cells [2]): 110 nM
IC50 (nM), cAMP HTRF assay, Calu-6 with HEK293/A2AR cells (human CD73 on cells [3]): 13.2 nM
Ymax, cAMP HTRF assay (percent of 100 nM 11F11 control) (human CD73 on cells [3]): 80%
Kd [4]: 41 nM
koff [4]: 0.006 s⁻¹
kon [4]: 150000 M⁻¹ s⁻¹
EC50 (human CD73 on cells [5]): 11.7 nM

B3: CD73.4-IgG2.5G1-KH (antibody)
heavy: QVQLVESGGGVVQPGRSLRLSCAASGFTFSNYGMHWVRQAPGKGLEWVAVILYDGSNKYYPDSVKGRFTISRDNSKNTLYLQMNSLRAEDTAVYYCARGGSSWYPDSFDIWGQGTMVTVSSASTKGPSVFPLAPSSRSTSESTAALGCLVKDYFPEPVTVSWNSGALTSGVHTFPAVLQSSGLYSLSSVVTVPSSNFGTQTYTCNVDHKPSNTKVDKTVERKCCVECPPCPAPPVAGPSVFLFPPKPKDTLMISRTPEVTCVVVDVSHEDPEVKFNWYVDGVEVHNAKTKPREEQYNSTYRVVSVLTVLHQDWLNGKEYKCKVSNKALPAPIEKTISKAKGQPREPQVYTLPPSREEMTKNQVSLTCLVKGFYPSDIAVEWESNGQPENNYKTTPPVLDSDGSFFLYSKLTVDKSRWQQGNVFSCSVMHEALHNHYTQKSLSLSPGK
light: not shown
CD73 Inhibition EC50 (nM), cAMP assay, Calu6 (human CD73 on cells [6]): 0.44 nM
CD73 Inhibition S:B (inhibition versus background) (human CD73 on cells [6]): 42

B6: CD73.4-IgG2.5 (antibody)
heavy: B3 heavy with K274Q, Y296F, Y300F, L309V, A327G, A339T, V397M
light: not shown
CD73 Inhibition EC50 (nM), cAMP assay, Calu6 (human CD73 on cells [6]): 2.17 nM
CD73 Inhibition S:B (inhibition versus background) (human CD73 on cells [6]): 51

The remaining lines, values ahead:

Kd [4]: 0.72 nM
koff [4]: 0.00022 s⁻¹
kon [4]: 300000 M⁻¹ s⁻¹
B2: CD73.6-IgG2-C219S-IgG1.1f (antibody)
heavy: B3 heavy with G55S, S135C, C223S, A330S, P331S
light: not shown
notes: also called CD73.6-IgG2CS IgG1.1f; mAb-CD73.6-Vh-hHC-IgG2-C219S-IgG1.1f

CD73 Inhibition EC50 (nM), cAMP assay, Calu6 (human CD73 on cells [6]): 1.7 nM
CD73 Inhibition S:B (inhibition versus background) (human CD73 on cells [6]): 52
B4: CD73.4-IgG2.3G1-KH (antibody)
heavy: B3 heavy with S135C, C223S
light: not shown

CD73 Inhibition EC50 (nM), cAMP assay, Calu6 (human CD73 on cells [6]): 0.87 nM
CD73 Inhibition S:B (inhibition versus background) (human CD73 on cells [6]): 45
B5: CD73.4-IgG2.5G1.1f-KH (antibody)
heavy: B3 heavy with A330S, P331S
light: not shown

— patent publication US20190284293A1 (Bristol-Myers Squibb, published 2019)
